Laboratory results: patent US20240141045A1 (PRECIGEN, published 2024)
One block for each binder: values may come before it.

Legend:
PD-1 Fc fusion protein [1] = target: T1, PD-1 Fc fusion protein (UniProt Q15116 25-167, limits assumed); experiment: SPR (Biacore 3000), PD-1 Fc immobilised on CM5 chip, fusion protein injected
T1 construct: Antigen immobilised on the CM5 chip in all PD-1 SPR assays; also called PD-1 fused to human Fc region; PD-1-Fc antigen; not shown: human Fc region
Protocol: (§1) Surface plasma resonance (SPR) analysis was performed using Biacore3000, CM5 chip, an amine-coupling kit, 10×HBS-P running buffer and Glycine for regeneration (GE Healthcare). […] Dissociation was allowed to proceed followed by a pulse of 10 mM Glycine (pH 1.5) for regeneration of the chip surface.

TGF-β1 [2] = target: T2, TGF-β1 (UniProt P01137 279-390); experiment: cell-based or functional assay
T2 sequence (P01137 279-390 limits assumed): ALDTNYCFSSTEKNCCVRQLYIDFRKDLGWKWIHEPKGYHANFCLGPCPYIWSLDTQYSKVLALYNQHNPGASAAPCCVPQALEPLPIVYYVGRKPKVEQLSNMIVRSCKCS

TGF-β3 [3] = target: T3, TGF-β3 (UniProt P10600 301-412); experiment: cell-based or functional assay
T3 sequence (looked up): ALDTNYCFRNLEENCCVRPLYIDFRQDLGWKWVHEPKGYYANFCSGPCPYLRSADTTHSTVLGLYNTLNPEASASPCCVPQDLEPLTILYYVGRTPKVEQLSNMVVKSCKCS

[4] = target: T4, PD-1 (programmed cell death protein 1), on cells (UniProt Q15116 25-288, limits assumed); experiment: cell-based or functional assay
T4 sequence (Q15116 25-288 limits assumed): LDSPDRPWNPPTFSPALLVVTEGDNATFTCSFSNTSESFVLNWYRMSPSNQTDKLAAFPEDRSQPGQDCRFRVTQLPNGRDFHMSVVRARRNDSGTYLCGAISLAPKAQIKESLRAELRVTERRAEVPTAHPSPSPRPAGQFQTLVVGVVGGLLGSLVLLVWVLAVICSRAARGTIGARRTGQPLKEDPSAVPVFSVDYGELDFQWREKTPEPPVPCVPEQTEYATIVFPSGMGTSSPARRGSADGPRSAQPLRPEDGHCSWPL

PD-1 Fc fusion protein [5] = target: T1, PD-1 Fc fusion protein; experiment: SPR (Biacore 3000), recombinant PD-1 Fc immobilised on CM5 chip, fusion protein injected
Protocol: Surface plasma resonance (SPR) analysis was performed using Biacore3000, CM5 chip, an amine-coupling kit, 10×HBS-P running buffer and Glycine for. […] Dissociation was allowed to proceed followed by regeneration of the chip surface.

[6] = target: T4, PD-1 (programmed cell death protein 1), …; experiment: cell-based or functional assay; remark: listed apart in the source
TGF-β2 = target: T5, TGF-β2 (UniProt P61812 303-414); experiment: SPR (Biacore 3000), fusion protein immobilised on CM5 chip, TGF-β2 injected
T5 sequence (looked up): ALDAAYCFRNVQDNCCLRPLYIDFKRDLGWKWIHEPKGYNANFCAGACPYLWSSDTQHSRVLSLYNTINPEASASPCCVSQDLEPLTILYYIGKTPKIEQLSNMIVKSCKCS
Protocol: as §1

TGF-β1 [7] = target: T2, TGF-β1; experiment: SPR (Biacore 3000), fusion protein immobilised on CM5 chip, TGF-β1 injected
Protocol: as §1

TGF-β3 [8] = target: T3, TGF-β3; experiment: SPR (Biacore 3000), fusion protein immobilised on CM5 chip, TGF-β3 injected
Protocol: as §1

T1 sequence (Q15116 25-167 limits assumed): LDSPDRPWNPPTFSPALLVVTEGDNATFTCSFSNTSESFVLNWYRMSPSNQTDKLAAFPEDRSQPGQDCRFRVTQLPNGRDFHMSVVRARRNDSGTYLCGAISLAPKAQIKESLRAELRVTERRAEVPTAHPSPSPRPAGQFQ

Kd (PD-1 Fc fusion protein [1]): 0.00764 nM | IC50; neutralisation of TGF-β1 signalling, HEK-Blue TGF-β reporter cells (SEAP, absorbance 620 nM) (TGF-β1 [2]): 12.7 pM | IC50; neutralisation of TGF-β3 signalling, HEK-Blue TGF-β reporter cells (SEAP, absorbance 620 nM) (TGF-β3 [3]): 5.3 pM
B1: Anti-PD1(VH6-VL5) IgG1-TGFβRII (antibody)
VH: QVQLVESGGGVVQPGRSLRLDCKASGITFSNSGMHWVRQAPGKGLEWVAVIWYDGSKRYYADSVKGRFTISRDNSKNTLFLQMNSLRAEDTAVYYCATNDDYWGQGTLVTVSS
VL: EIVLTQSPATLSLSPGERATLSCRASQSVSSYLAWYQQKPGQAPRLLIYDASNRATGIPARFSGSGSGTDFTLTISSLEPEDFAVYYCQQSSNWPRTFGQGTKVEIK
chain: GGGGSGGGGSIPPHVQKSVNNDMIVTDNNGAVKFPQLCKFCDVRFSTCDNQKSCMSNCSITSICEKPQEVCVAVWRKNDENITLETVCHDPKLPYHDFILEDAASPKCIMKEKKKPGETFFMCSCSSDECNDNIIFSEEYNTSNPD
notes: not shown: light-chain constant region (not tied to the IgG1 format); copies: 2 + 2 + 2
IC50; PD-1/PD-L1 blockade bioassay (PD-1 effector cells with PD-L1 aAPC/CHO-K1 cells, luciferase RLU) [4]: 9.5 nM

Kd (PD-1 Fc fusion protein [5]): 0.309 pM
B2: Anti-PD1 (VH6-VL5) IgG1-ADA2 (antibody)
heavy (part 1 of 2): B1 VH
heavy (part 2 of 2): GGGGSGGGGSSIDETRAHLLLKEKMMRLGGRLVLNTKEELANERLMTLKIAEMKEAMRTLIFPPSMHFFQAKHLIERSQVFNILRMMPKGAALHLHDIGIVTMDWLVRNVTYRPHCHICFTPRGIMQFRFAHPTPRPSEKCSKWILLEDYRKRVQNVTEFDDSLLRNFTLVTQHPEVIYTNQNVVWSKFETIFFTISGLIHYAPVFRDYVFRSMQEFYEDNVLYMEIRARLLPVYELSGEHHDEEWSVKTYQEVAQKFVETHPEFIGIKIIYSDHRSKDVAVIAESIRMAMGLRIKFPTVVAGFDLVGHEDTGHSLHDYKEALMIPAKDGVKLPYFFHAGETDWQGTSIDRNILDALMLNTTRIGHGFALSKHPAVRTYSWKKDIPIEVCPISNQVLKLVSDLRNHPVATLMATGHPMVISSDDPAMFGAKGLSYDFYEVFMGIGGMKADLRTLKQLAMNSIKYSTLLESEKNTFMEIWKKRWDKFIADVATK
light: B1 VL
notes: also called anti-PD1 (VH6/VL5) hIgG1-ADA2; not shown: IgG1 (hIgG1) heavy chain constant region; light chain constant region
EC50 (read off the curve); PD-1/PD-L1 blockade reporter bioassay (luciferase RLU) [6]: ~600 ng/mL

Kd (PD-1 Fc fusion protein [1]): 19.7 nM
B3: Anti-PD1(VH6-VL5) scFv-TGFβRII (scFv)
chain 1: B1 VH
chain 2: B1 VL
chain 3: B1 chain

IC50; neutralisation of TGF-β1 signalling, HEK-Blue TGF-β reporter cells (SEAP, absorbance 620 nM) (TGF-β1 [2]): 14.9 pM | Kd (TGF-β2): 0.859 nM | Kd (TGF-β1 [7]): 5.22 pM | IC50; neutralisation of TGF-β3 signalling, HEK-Blue TGF-β reporter cells (SEAP, absorbance 620 nM) (TGF-β3 [3]): 6.7 pM | Kd (TGF-β3 [8]): 2.19 pM
B4: Anti-PD1(VH6-VL5) IgG4-TGFβRII (antibody)
heavy: QVQLVESGGGVVQPGRSLRLDCKASGITFSNSGMHWVRQAPGKGLEWVAVIWYDGSKRYYADSVKGRFTISRDNSKNTLFLQMNSLRAEDTAVYYCATNDDYWGQGTLVTVSSASTKGPSVFPLAPCSRSTSESTAALGCLVKDYFPEPVTVSWNSGALTSGVHTFPAVLQSSGLYSLSSVVTVPSSSLGTKTYTCNVDHKPSNTKVDKRVESKYGPPCPSCPAPEFLGGPSVFLFPPKPKDTLMISRTPEVTCVVVDVSQEDPEVQFNWYVDGVEVHNAKTKPREEQFNSTYRVVSVLTVLHQDWLNGKEYKCKVSNKGLPSSIEKTISKAKGQPREPQVYTLPPSQEEMTKNQVSLTCLVKGFYPSDIAVEWESNGQPENNYKTTPPVLDSDGSFFLYSRLTVDKSRWQEGNVFSCSVMHEALHNHYTQKSLSLSPGKGGGGSGGGGSIPPHVQKSVNNDMIVTDNNGAVKFPQLCKFCDVRFSTCDNQKSCMSNCSITSICEKPQEVCVAVWRKNDENITLETVCHDPKLPYHDFILEDAASPKCIMKEKKKPGETFFMCSCSSDECNDNIIFSEEYNTSNPD
light: not shown
notes: IgG4 antibody with TGFβRII ECD fused to the C-terminus of the heavy chain; also called anti-PD-1 IgG4 antibody (VH6-VL5)-TGFβRII fusion protein; VH6-IgG4(wt)-linker-ECD with VL5
